Earlier results on four substances are cited in patent publication US8337823B2, “Modified macromolecule” (priority 2006, dated 2012).

The conditions of this data set: pH 4 and pH 5.

Turning to “α-methoxy-ω-(N-(2-methyl-s-octadedcyloxy-[1,3]dioxan-5-yl)-amido}-polyethyleneglycol110”, the “stability of the conjugate in acidic conditions” value (“stability of the conjugate” for short) is recorded as “not stable”.

Turning to “α-methoxy-ω-N-(2-octadecyloxy-[1,3]dioxolan-4-yl)methylamido}-polyethyleneglycol110”, the “stability of the conjugate” value was “good stability at both pH 4 and 5”.

Turning to “α-methoxy-ω-{N-2-(3-hydroxypropyl-cholesterylcarbamate)-2-methyl-[1,3]dioxan-5-yl-amido}-polyethyleneglycol110”, the “stability of the conjugate” value is reported as “not stable”.

For the substance “α-methoxy-ω-{N-(2-cholesteryloxy-[1,3]dioxolan-4-yl)methylamido)-polyethyleneglycol110”, the “stability of the conjugate” value was “very stable at pH 5 but moderately less stable at pH 4”.
